Here are results for one molecule from publication PMC11102864 (Nature Structural & Molecular Biology, 2024).

This assay concerns the target Arp3 (subunit of the human Arp2/3 complex, activated conformation at the branch) (human, UniProt P61158 1-418). Description: cryo-EM structure; actin branches reconstituted from Arp2/3, VVCA, SPIN90, actin and capping protein, then 1.9 uM full-length cortactin and 10 uM phalloidin; 20 mM HEPES pH 7.5, 50 mM KCl, 1 mM EGTA, 1 mM MgCl2, 0.2 mM ATP, 1 mM DTT; room temperature; overall resolution about 3.3 Å. Particulars: both partners purified.

B1: Full-length mouse cortactin (natural protein)
chain: not shown
notes: cortactin, mouse, residues 1-546, UniProt Q60598; only residues 21-79 (NtA) and 80-116 (first central repeat) were built in the model; also called full-length cortactin
As for B1, the binding result is “binds”.
